Publication doi:10.1101/2024.11.22.624932
Where a chain is given by its changes, count along the chain named. Numbers in names are those of the source. Blank lines part the entries; values can stand above or below the binder they belong to.

Tests used:
[1] = target: synthetic nanobody (sybody) Sb44; assay: SEC
[2] = target: Sb44 V100C; assay: SDS-PAGE under non-reducing and reducing conditions
[3] = target: Sb44 V100C; assay: SEC

stoichiometry N [1]: 2
B1: synthetic nanobody (sybody) Sb44 (VHH)
VHH: QVQLVESGGGLVQAGGSLRLSCAASGFPVGRASMWWYRQAPGKEREWVAAISSYGWVTAYADSVKGRFTISRDNAKNTVYLQMNSLKPEDTAVYYCEVSVGTGYRGQGTQVTVSA

stoichiometry N [2]: 2 | stoichiometry N [3]: 2
B2: Sb44 V100C (VHH)
VHH: B1 VHH with V100C
